Test results from publication PMC2563146.

Biological target: Gal4-ARNT-ΔTAD (PL283), Gal DNA-binding domain fusion of ARNT deleted for the transactivation domain
Experiment: two-hybrid

Substance	fold increase of luciferase activity with 1nM TCDD [fold]
full-length AHRdbd, 'fish' of the mammalian two-hybrid (pTgTAHRdbd, PL1548) (from UniProt P30561 10-848) (natural protein)	10
wild-type AHR, 'fish' of the mammalian two-hybrid (pTgTAHRs, PL1550) (from UniProt P30561 10-848) (natural protein)	3
